Assay results from publication doi:10.1101/2024.04.02.587704.

Target: ReoM-His from the ΔprkA ΔmurZ strain LMPR29 (unphosphorylated at Thr-7) (L. monocytogenes) (UniProt B8DE07)
Test: cross-linking + pull-down

Sequence of UniProt B8DE07 (B8DE07 whole entry, stated change not applied): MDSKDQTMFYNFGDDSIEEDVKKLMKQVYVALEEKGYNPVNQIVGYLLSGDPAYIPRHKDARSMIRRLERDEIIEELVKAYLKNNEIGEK

B1: MurA (L. monocytogenes UDP-N-acetylglucosamine 1-carboxyvinyltransferase) (enzyme)
chain: MEKIIVRGGKQLNGSVKMEGAKNAVLPVIAATLLASKGTSVLKNVPNLSDVFTINEVLKYLNADVSFVNDEVTVDATGEITSDAPFEYVRKMRASIVVMGPLLARTGSARVALPGGCAIGSRPVDLHLKGFEAMGAVVKIENGYIEATAEKLVGAKVYLDFPSVGATQNIMMAATLAEGTTVIENVAREPEIVDLANFLNQMGARVIGAGTEVIRIEGVKELTATEHSIIPDRIEAGTFMIAAAITGGNVLIEDAVPEHISSLIAKLEEMGVQIIEEENGIRVIGPDKLKAVDVKTMPHPGFPTDMQSQMMVIQMLSEGTSIMTETVFENRFMHVEEMRRMNADMKIEGHSVIISGPAKLQGAEVAATDLRAAAALILAGLVADGYTQVTELKYLDRGYNNFHGKLQALGADVERVDDSKVDVTNLASLF
B1 was tested, and the fold MurA copurified, against the prkA+ strain was 3 fold.
